This is an account of results in PMC11065761.

Experiment in all cases: SPR
In experiment [1] the target is C4b biotinylated at the free sulfhydryl group of the thioester moiety.
The target of experiment [2] is C3b.
The target in experiment [3] is C3b. The source holds these as a separate data set.
A further experiment concerns the target C4b (amine coupled).
In another experiment the target is C3d (UniProt P01024).

Like-named read-outs stand apart in the source and are kept apart here.

Chain of Full-length factor H (FH) (P08603 19-1231): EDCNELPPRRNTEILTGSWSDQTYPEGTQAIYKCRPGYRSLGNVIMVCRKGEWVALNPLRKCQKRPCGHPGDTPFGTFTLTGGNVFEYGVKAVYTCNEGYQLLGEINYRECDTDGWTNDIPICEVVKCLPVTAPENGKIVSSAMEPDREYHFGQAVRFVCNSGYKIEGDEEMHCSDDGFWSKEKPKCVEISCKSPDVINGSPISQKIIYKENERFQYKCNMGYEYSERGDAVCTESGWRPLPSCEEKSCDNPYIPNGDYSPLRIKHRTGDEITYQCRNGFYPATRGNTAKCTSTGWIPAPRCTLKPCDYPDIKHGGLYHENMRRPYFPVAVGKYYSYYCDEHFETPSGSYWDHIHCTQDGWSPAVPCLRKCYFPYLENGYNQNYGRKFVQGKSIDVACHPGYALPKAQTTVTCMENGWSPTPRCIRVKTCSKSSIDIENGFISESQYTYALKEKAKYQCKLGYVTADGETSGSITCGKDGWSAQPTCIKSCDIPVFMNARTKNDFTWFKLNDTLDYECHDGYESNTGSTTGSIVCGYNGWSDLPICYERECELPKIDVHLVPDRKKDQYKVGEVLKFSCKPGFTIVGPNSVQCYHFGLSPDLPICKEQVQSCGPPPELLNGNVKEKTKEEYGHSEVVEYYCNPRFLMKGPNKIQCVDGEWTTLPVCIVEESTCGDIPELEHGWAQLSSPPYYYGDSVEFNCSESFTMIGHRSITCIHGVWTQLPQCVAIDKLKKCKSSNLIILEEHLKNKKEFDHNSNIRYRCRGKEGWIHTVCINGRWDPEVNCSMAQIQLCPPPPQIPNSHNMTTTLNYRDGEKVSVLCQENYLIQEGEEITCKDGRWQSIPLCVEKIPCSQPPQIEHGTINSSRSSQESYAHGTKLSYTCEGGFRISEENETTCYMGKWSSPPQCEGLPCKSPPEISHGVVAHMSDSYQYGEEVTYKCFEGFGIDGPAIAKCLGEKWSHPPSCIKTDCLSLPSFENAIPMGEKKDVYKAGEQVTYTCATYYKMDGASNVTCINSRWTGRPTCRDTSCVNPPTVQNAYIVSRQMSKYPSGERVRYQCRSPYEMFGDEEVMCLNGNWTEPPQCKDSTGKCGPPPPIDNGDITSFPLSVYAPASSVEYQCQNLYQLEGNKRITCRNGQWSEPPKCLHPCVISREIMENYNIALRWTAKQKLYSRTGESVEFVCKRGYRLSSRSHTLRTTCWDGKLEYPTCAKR
Chain of C3d (P01024 1002-1303): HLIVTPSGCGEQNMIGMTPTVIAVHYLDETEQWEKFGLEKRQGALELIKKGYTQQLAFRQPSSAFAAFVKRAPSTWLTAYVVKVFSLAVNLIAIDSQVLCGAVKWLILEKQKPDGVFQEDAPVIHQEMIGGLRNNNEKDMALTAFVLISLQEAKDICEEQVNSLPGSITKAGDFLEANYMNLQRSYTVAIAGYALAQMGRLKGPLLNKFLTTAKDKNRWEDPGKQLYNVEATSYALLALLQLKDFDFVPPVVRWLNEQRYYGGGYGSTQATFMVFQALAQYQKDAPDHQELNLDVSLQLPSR

As usually defined, the Kd is the concentration at which binding is half-saturated. A low value points to a tighter complex. Consider “CR1(15–17), the middle CCP domains 15 to 17 of complement receptor 1 (domain or fragment)”, for which the equilibrium dissociation constant (Kd) was determined as 7800 nM in experiment [1] and 900 nM with C3b [2].
Taken in the same sequence, the figures for “DAF(1–4), the first four CCP domains of decay accelerating factor (domain or fragment)” were 17600 nM and 11000 nM.
As for “DAF(1–4)FH(19–20)-LL (long linker, polyglycine linker of 13 residues)”, the Kd in the experiment with C3b [2] stood at 175 nM.
The same measure, in the same setting: for “DAF(1–4)FH(19–20)-SL (short linker, "GPGG")” the value was 125 nM; for “FH(19–20), the two C-terminal CCP domains of factor H (domain or fragment)”, 4700 nM.
For the substance “Full-length factor H (FH) (from UniProt P08603 19-1231) (natural protein)”, in the experiment with C3b [3], the Kd was determined as 802 nM.
Turning to “TriFu_6G (triple fusion complement inhibitor, 6 glycine residues between DAF and FH)”, the Kd with C4b (amine coupled) was determined as 865 nM; in the experiment with C3d, 22000 nM; in experiment [1] it was 643 nM; in the experiment with C3b [2], 50 nM; in the experiment with C3b [3], 59 nM.
Turning to “TriFu_13G (triple fusion complement inhibitor, 13 glycine residues between DAF and FH)”, the Kd with C3b [3] is 25 nM.
